# According to article PMC10563079 (Molecules, 2023):
# Bridge positions count the residues as written; N and C are the ends. Ends that are not written are not given here. Peptide text beside a SMILES is read from it.
# T1: full-length PHGDH (1-533) (Homo sapiens, UniProt O43175)
# T1 construct: the full-length PHGDH (1-533); made in house
# T1 sequence (O43175 1-533): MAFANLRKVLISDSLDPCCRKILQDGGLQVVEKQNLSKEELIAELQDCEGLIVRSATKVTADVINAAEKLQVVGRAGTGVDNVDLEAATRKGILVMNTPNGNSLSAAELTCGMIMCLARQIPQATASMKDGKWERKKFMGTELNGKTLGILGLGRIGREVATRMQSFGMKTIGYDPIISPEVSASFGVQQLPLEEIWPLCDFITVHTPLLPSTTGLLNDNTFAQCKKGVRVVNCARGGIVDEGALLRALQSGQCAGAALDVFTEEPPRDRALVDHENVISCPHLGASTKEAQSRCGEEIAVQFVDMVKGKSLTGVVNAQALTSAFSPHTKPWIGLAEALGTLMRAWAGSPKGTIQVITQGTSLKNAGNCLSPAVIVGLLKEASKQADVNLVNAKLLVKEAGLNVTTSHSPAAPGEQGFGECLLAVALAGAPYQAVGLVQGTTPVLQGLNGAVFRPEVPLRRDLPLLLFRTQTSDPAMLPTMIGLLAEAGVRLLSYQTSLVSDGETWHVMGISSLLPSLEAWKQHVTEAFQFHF
# T2: sPHGDH (1-307) (Homo sapiens, UniProt O43175)
# T2 construct: the truncated version of PHGDH (sPHGDH, 1-307); made in house
# T2 sequence (O43175 1-307): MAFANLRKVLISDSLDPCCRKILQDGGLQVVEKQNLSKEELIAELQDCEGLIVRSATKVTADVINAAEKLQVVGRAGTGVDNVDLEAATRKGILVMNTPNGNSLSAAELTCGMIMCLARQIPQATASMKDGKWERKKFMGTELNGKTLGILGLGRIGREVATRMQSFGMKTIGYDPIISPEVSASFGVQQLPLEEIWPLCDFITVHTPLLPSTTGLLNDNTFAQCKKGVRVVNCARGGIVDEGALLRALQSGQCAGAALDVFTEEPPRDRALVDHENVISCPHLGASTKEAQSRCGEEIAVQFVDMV
# B1: double constrained cyclic peptide cyc2-5 (peptide)
# peptide: CTPQATACMKDGKWCWKKC
# modifications: disulfide 1-19, 8-15; not fully specified (N-terminus); printed as C_1_TPQA TAC_8_MK DGKWC_15_ WKKC_19_
# B2: double constrained cyclic peptide cyc2-4 (peptide)
# peptide: CTPQATACMWDGKWCRKKC
# modifications: disulfide 1-19, 8-15; not fully specified (N-terminus); printed as C_1_TPQA TAC_8_MW DGKWC_15_ RKKC_19_
# B3: double constrained cyclic peptide cyc2-6 (peptide)
# peptide: CTPQATACMLDGKWCEKKC
# modifications: disulfide 1-19, 8-15; not fully specified (N-terminus); printed as C_1_TPQA TAC_8_ML DGKWC_15_ EKKC_19_
# B4: cyclic peptide cyc1-1 (peptide)
# peptide: CTPQATASMKDGKWERKKC
# modifications: disulfide 1-19; not fully specified (N-terminus); printed as C_1_TPQATASMKDGKWERKKC_19_
# B5: cyclic peptide cyc1-7 (peptide)
# peptide: CTPQATLTMKDGKWEEKKC
# modifications: disulfide 1-19; not fully specified (N-terminus); printed as C_1_TPQA TLTMK DGKWE EKKC_19_
# B6: cyclic peptide cyc1-3 (peptide)
# peptide: CTPQATKSMLDGKWEEKKC
# modifications: disulfide 1-19; not fully specified (N-terminus); printed as C_1_TPQA TKSML DGKWE EKKC_19_
# B7: double constrained cyclic peptide cyc2-2 (peptide)
# peptide: CTPQATACMLDGKWCRKKC
# modifications: disulfide 1-19, 8-15; not fully specified (N-terminus); printed as C_1_TPQA TAC_8_ML DGKWC_15_ RKKC_19_
# Key:
# [1] = molecular target: T1, full-length PHGDH (1-533); experiment: full-length PHGDH enzyme activity assay (NADH fluorescence); assay type: biochemical; conditions: read-out: IC50 value (μM), full-length PHGDH activity
# Method: (§1) PHGDH activity in the presence of peptides was measured in 96-well plates (100 μL per well) at 25 °C, through monitoring the NADH fluorescence (excitation at 360 nm and emission at 460 nm) over time. PAST1 and its substrate glutamate were also included in order to prevent product inhibition. In the enzyme assays, protein expression and purification, including the truncated version of PHGDH (sPHGDH, 1-307), the full-length PHGDH (1-533), and PAST1, were carried out as described in our previous papers. To evaluate the effects of peptides on enzyme activity, the peptides were pre-incubated with enzyme samples (sPHGDH 453.3 nM or PHGDH 30.9 nM) in the assay buffer (HEPES 50 mM, pH 7.5, 10 mM MgCl2, and 1 mM EDTA) for 12 h. Then, 1.98 μM PAST1, 1 mM NAD^+, and 30 mM glutamate were added and pre-incubated for 10 min before initiating the enzyme reaction via the addition of the substrate (1 mM 3-PG). Fluorescence signals were recorded for 3 min with the kinetics-reading mode of the Biotek plate reader (Synergy). IC50 values were obtained through fitting the data using a three-parameter Hill model of the graph of log dose against the percentage inhibition from three repeated experiments. For those peptides containing two disulfide bonds, a second step of oxidation reaction was carried out to generate the second disulfide pair. […] The purified Acm-protected peptide was then treated with iodine (I2, 1 wt% in MeOH), dropwise under acidic conditions until the solution became brown.
# sPHGDH (1-307) = molecular target: T2, sPHGDH (1-307); experiment: sPHGDH enzyme activity assay (NADH fluorescence); assay type: biochemical; conditions: sPHGDH; for Inhibition Rate (%): peptide concentration of 50 µM
# Method: as §1
# [2] = molecular target: truncated version of PHGDH (sPHGDH, 1-307) (human) (UniProt O43175)
molecule,measurement,setting,value
"CSCC[C@@H]1NC(=O)[C@H](CO)NC(=O)[C@H](CC(C)C)NC(=O)[C@H]([C@@H](C)O)NC(=O)[C@H](C)NC(=O)[C@H](CCC(N)=O)NC(=O)[C@@H]2CCCN2C(=O)[C@H]([C@@H](C)O)NC(=O)[C@@H](NC(C)=O)CSSC[C@@H](C(=O)O)NC(=O)[C@H](CCCCN)NC(=O)[C@H](CCCCN)NC(=O)[C@H](CCC(=O)O)NC(=O)[C@H](CCC(=O)O)NC(=O)[C@H](Cc2c[nH]c3ccccc23)NC(=O)[C@H](CCCCN)NC(=O)CNC(=O)[C@H](CC(=O)O)NC(=O)[C@H](CCCCN)NC1=O [Cyc1-2, C1TPQA TLSMK DGKWE EKKC19] (Ac-CTPQATLSMKDGKWEEKKC-OH; disulfide 1-19)",IC50,[1],20.1 ± 2.6 µM
"CSCC[C@@H]1NC(=O)[C@H](CO)NC(=O)[C@H](C)NC(=O)[C@H]([C@@H](C)O)NC(=O)[C@H](C)NC(=O)[C@H](CCC(N)=O)NC(=O)[C@@H]2CCCN2C(=O)[C@H]([C@@H](C)O)NC(=O)[C@@H](NC(C)=O)CSSC[C@@H](C(=O)O)NC(=O)[C@H](CCCCN)NC(=O)[C@H](CCCCN)NC(=O)[C@H](Cc2c[nH]c3ccccc23)NC(=O)[C@H](CCC(=O)O)NC(=O)[C@H](Cc2c[nH]c3ccccc23)NC(=O)[C@H](CCCCN)NC(=O)CNC(=O)[C@H](CC(=O)O)NC(=O)[C@H](CC(C)C)NC1=O [Cyc1-5, C1TPQA TASML DGKWE WKKC19] (Ac-CTPQATASMLDGKWEWKKC-OH; disulfide 1-19)",IC50,[1],37.1 ± 1.7 µM
same,IC50,"sPHGDH (1-307); 12 h pre-incubation, read-out: IC50 Value",13.4 ± 2 µM
"CSCC[C@@H]1NC(=O)[C@H](CO)NC(=O)[C@H](C)NC(=O)[C@H]([C@@H](C)O)NC(=O)[C@H](C)NC(=O)[C@H](CCC(N)=O)NC(=O)[C@@H]2CCCN2C(=O)[C@H]([C@@H](C)O)NC(=O)[C@@H](NC(C)=O)CSSC[C@@H](C(=O)O)NC(=O)[C@H](CCCCN)NC(=O)[C@H](CCCCN)NC(=O)[C@H](CCC(=O)O)NC(=O)[C@H](CCC(N)=O)NC(=O)[C@H](Cc2c[nH]c3ccccc23)NC(=O)[C@H](CO)NC(=O)CNC(=O)[C@H](CC(N)=O)NC(=O)[C@H](CCCCN)NC1=O [Cyc1-9, C1TPQA TASMK NGSWQ EKKC19] (Ac-CTPQATASMKNGSWQEKKC-OH; disulfide 1-19)",IC50,[1],56.1 ± 3.4 µM
"C1TPQA TAC8MK DGKWC15 WKKC19 (CTPQATACMKDGKWCWKKC; disulfide 1-19, 8-15; not fully specified (N-terminus); printed as C_1_TPQA TAC_8_MK DGKWC_15_ WKKC_19_) [Cyc2-5, cyc2-1 with R16W]",Inhibition Rate (%),sPHGDH (1-307),27%
"C1TPQA TAC8MW DGKWC15 RKKC19 (CTPQATACMWDGKWCRKKC; disulfide 1-19, 8-15; not fully specified (N-terminus); printed as C_1_TPQA TAC_8_MW DGKWC_15_ RKKC_19_) [Cyc2-4, cyc2-1 with K10W]",Inhibition Rate (%),sPHGDH (1-307),44%
"C1TPQA TASMK DGKWE RKKC19 (CTPQATASMKDGKWERKKC; disulfide 1-19; not fully specified (N-terminus); printed as C_1_TPQATASMKDGKWERKKC_19_) [Cyc1-1, head-to-tail disulfide-cyclized peptide (C1-C19) from the PHGDH dimerization loop]",Inhibition Rate (%),sPHGDH (1-307),40%
same,inhibitory activity on sPHGDH (in words),sPHGDH (1-307),limited activity
"C1TPQA TESML RGKWE EKKC19 (CTPQATESMLRGKWEEKKC; disulfide 1-19; not fully specified (N-terminus); printed as C_1_TPQA TESML RGKWE EKKC_19_) [Cyc1-4, single disulfide cyclic peptide with A7E and D11R]",Inhibition Rate (%),sPHGDH (1-307),None
same,inhibitory activity on sPHGDH (in words),sPHGDH (1-307),largely decreased or abolished the activity
"C1TPQA TKSML DGKWE EKKC19 (CTPQATKSMLDGKWEEKKC; disulfide 1-19; not fully specified (N-terminus); printed as C_1_TPQA TKSML DGKWE EKKC_19_) [Cyc1-3, single disulfide cyclic peptide with substitution A7K]",Inhibition Rate (%),sPHGDH (1-307),19%
same,inhibitory activity on sPHGDH (in words),sPHGDH (1-307),largely decreased or abolished the activity
"C1TPQA TLLMK DGKWE EKKC19 (CTPQATLLMKDGKWEEKKC; disulfide 1-19; not fully specified (N-terminus); printed as C_1_TPQA TLLMK DGKWE EKKC_19_) [Cyc1-8, cyc1-2 with substitution S8L]",Inhibition Rate (%),sPHGDH (1-307),None
same,inhibitory activity on sPHGDH (in words),sPHGDH (1-307),completely eliminated the activity
"C1TPQA TLSMK NGSWQ EKKC19 (CTPQATLSMKNGSWQEKKC; disulfide 1-19; not fully specified (N-terminus); printed as C_1_TPQA TLSMK NGSWQ EKKC_19_) [Cyc1-10, cyc1-9 with added A7L]",Inhibition Rate (%),sPHGDH (1-307),None
same,inhibitory activity on sPHGDH (in words),sPHGDH (1-307),inactive
B1,Inhibition rate of sPHGDH enzyme activity (NADH fluorescence) at 50 µM peptide; the pair blocked is the sPHGDH homo-dimer (m1+m1),[2],27%
B2,Inhibition rate of sPHGDH enzyme activity (NADH fluorescence) at 50 µM peptide; the pair blocked is the sPHGDH homo-dimer (m1+m1),[2],44%
B3,IC50 of inhibition of sPHGDH enzyme activity (NADH fluorescence); the pair blocked is the sPHGDH homo-dimer (m1+m1),[2],15 µM
B4,Inhibition rate of sPHGDH enzyme activity (NADH fluorescence) at 50 µM peptide; the pair blocked is the sPHGDH homo-dimer (m1+m1),[2],40%
B5,IC50 of inhibition of sPHGDH enzyme activity (NADH fluorescence); the pair blocked is the sPHGDH homo-dimer (m1+m1),[2],5.6 µM
B6,Inhibition rate of sPHGDH enzyme activity (NADH fluorescence) at 50 µM peptide; the pair blocked is the sPHGDH homo-dimer (m1+m1),[2],19%
B7,IC50 of inhibition of sPHGDH enzyme activity (NADH fluorescence); the pair blocked is the sPHGDH homo-dimer (m1+m1),[2],9.4 µM
